Paper doi:10.1101/2022.05.12.491617

How the values were obtained:
[1] = biological target: Drosophila melanogaster KCC variant B (Drosophila melanogaster); experiment: SEC
[2] = biological target: Hydra vulgaris KCC (Hydra vulgaris); experiment: SEC
[3] = biological target: Hydra vulgaris KCC (Hydra vulgaris); experiment: SEC-MALLS

Substance | stoichiometry N [1] | stoichiometry N [2] | stoichiometry N [3]
Drosophila melanogaster KCC variant B (natural protein) | 2 |  | 
Hydra vulgaris KCC (natural protein) |  | 2 | 2
